Laboratory results: patent US20240084003A1 (SIMCERE ZAIMING PHARMACEUTICAL, published 2024)

T1: monkey CD22 on HEK293T-monkey CD22 cells (monkey)
T1 construct: full-length entry expressed on stably transfected HEK293T cells
T1 chain: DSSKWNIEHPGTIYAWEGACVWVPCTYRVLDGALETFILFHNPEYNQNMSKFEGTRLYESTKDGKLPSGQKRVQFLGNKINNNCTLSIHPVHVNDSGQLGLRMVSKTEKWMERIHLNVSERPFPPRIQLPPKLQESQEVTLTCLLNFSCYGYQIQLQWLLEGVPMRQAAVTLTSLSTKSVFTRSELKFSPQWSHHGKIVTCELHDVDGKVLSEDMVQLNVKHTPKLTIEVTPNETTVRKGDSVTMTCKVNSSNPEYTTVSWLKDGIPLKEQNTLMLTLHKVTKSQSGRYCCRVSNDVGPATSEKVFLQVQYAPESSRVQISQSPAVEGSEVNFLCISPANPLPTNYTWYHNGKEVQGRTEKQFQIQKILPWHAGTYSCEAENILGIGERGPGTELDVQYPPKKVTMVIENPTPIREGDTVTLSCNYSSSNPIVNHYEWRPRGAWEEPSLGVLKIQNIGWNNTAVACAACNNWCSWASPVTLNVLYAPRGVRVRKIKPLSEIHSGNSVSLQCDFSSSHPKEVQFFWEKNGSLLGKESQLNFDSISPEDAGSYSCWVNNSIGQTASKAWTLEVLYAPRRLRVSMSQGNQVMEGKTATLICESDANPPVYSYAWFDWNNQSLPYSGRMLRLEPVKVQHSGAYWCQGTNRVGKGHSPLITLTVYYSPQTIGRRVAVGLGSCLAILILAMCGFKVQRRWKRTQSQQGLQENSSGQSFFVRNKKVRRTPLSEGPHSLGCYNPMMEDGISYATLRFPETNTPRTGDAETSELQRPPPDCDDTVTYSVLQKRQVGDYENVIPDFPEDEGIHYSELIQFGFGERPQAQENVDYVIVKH

B1: F1.120.15 (antibody, human IgG1, kappa, V domains shown)
VH: QVQLQQSGPELVKPGASVKISCKASGNAFSNSWMNWVKQRPGKGLEWIGRVYSEDGDTQYNGKFRDKATLTADRSTSTAYMQLSSLTSEDSAVYFCARWLIYYGTYGAMDYWGQGTSVTVSS
VL: DIQMTQTTSSLSASLGDRVTISCRASQDINNYLNWYHQKPDGTVKLLIYFTSRPYSGVPSRFSGSGSGTDYSLTISNLEQEDIATYFCQQGNTLPWTFGGGTKLEIKR
notes: human-murine chimeric IgG1 kappa
B2: F1.216.2 (antibody, human IgG1, kappa, V domains shown)
VH: QVQLQQSGPEVVRPGASVKISCKASGYAFSSSWMNWMKQRPGKALEWIGRIYPGDGDTNYSGEFKVKATLTADKSSSTAYMQLSSLTSEDSAVYFCAREGSYYSNPWYFDYWGQGTTLTVSS
VL: DVLVTQTPLSLPVSLGDQASISCRSSQSIVQSNGDTYLEWYLQKPGQSPKLLIYKVSNRFSGVPDRFSGSGSGTDFTLKISRVEAEDLGVYYCFQGSHVPFTFGSGTKLEIKR
notes: as for B1
B3: F1.192.1 (antibody, human IgG1, kappa, V domains shown)
VH: AVQLQQSGVELVRPGASVKLSCTGSDFNIKEDYIHWVKQRPEQGLEWIGWIDPENGDTEYASKFQGKATITADTSSNTAYLQLSSLTSEDTAVYYCATYGSLDYWGQGTTLTVSS
VL: DIKMTQSPSSMYAFLGERVTITCKASQGINSFLTWFQQKPGKSPKTLIYRANRLVDGVPSRFSGSGSGQDYSLTISSLEYEDVGIYYCLQYDEFPRTFGGGTKLEIKR
notes: as for B1
B4: F1.224.1 (antibody, human IgG1, kappa, V domains shown)
VH: EVLLHQSGPELVKPGASVKISCKASGYTFTDFNMDWVRQRHGQSLEWIGDVNPNNGGTIYNQKFKGKATLTVDKSSSTVYMDLRSLTSDDTAVYYCVRLGTSDYGEAWFISWGQGTVVTVSA
VL: DIVLTQSPASLAVSLGQRATISCRASQSVSTPRYSFMHWYQQKPGQPPKLLIKYASNLESGFPARFTGSGSGTDFTLNIHPVEEEDTAAYYCQQSWAIPWTFGGGTKLEIKR
notes: human-murine chimeric IgG1 kappa; VL name legible
B5: F1.231.15 (antibody, IgG1, V domains shown)
VH: QVQLQQPGAELVKPGASVKLSCKTSGYTFTIYWMQWVKQRPGRGLEWIGRIDPHSGDTHYNENFTTKVTLTVDETSNTAYMHLSGLTSEDSAVYYCARRDYSYYVLDYWGQGTSVTVSS
VL: DVVLTQTPLSLPVSLGDQASISCRSSQSLVHINGDTYLHWYLQKPGQSPKLLIYTVFNRFSGVPDRFSGSGSGTDFTLKISRVEAEDLGAYFCSQSTHVPYTFGGGTKLEIKR
notes: as for B1
B6: F1.245.2 (antibody, human IgG1, kappa, V domains shown)
VH: EVQLQQSGAELVKPGASVKLSCTGSGFNIKDYYIHWVKQRTEQGLEWMGRIDPEDGETEYAPKFQDEATITSDTSSNTAYLQLSSLTYEDTAVYYCAREAAGYFYRGSSYGYFDVWGTGTTVTVSS
VL: DFQMTQTTSFLSASLGDRVTISCSASQDISNYLNWYQQKPDGTVKLLIYYTSSLHSGVPSRFSGSGSGTDYSLTISNLEPEDIATYYCQQYSMLPYTFGGGTKLEMER
notes: as for B1
B7: F1.17.1 (antibody, human IgG1, kappa, V domains shown)
VH: QVQLKESGPGLVAPSQSLSITCTVSGFSLSRYTVHWVRQPPGKGLEWLGMIWGGGSTDYNSALKSRLSISKDNSKSQVFLKMNSLQTDDTAMYYCARPHDFDAGGFAYWGQGTLVTVSA
VL: QIVLTQSPAILSTSPGEKVTMTCSASSRVNYMYWYQQKPGSSPRLLIYDTSNLASGVPVRFSGSGSGTSYSLTISRMEAEDAATYYCQQWTSYPLTFGAGTKLELKR
notes: as for B1
B8: F1.250.16 (antibody, human IgG1, kappa, V domains shown)
VH: QVQLQQSGAEQVKPGASVKMSCKASGYTFTTYPIEWMKQNHGESLDWIGNIHPYNDDTEYNEKFKGKATLTVEKSSNTVFLELSRLTSDDSAVYYCVRGDYYNSRYWYFDVWGTGTTVTVSS
VL: DIVMTQSQKFMSTTVGDRVSITCKAGQNVRTAVAWYQQKPGQSPKLLIYSASTRYIGVPERFTGSGSGTDFTLTITNMQSEDLADYFCQQYSSFPLTFGTGTKLELKR
notes: as for B4
B9: F1.257.3 (antibody, human IgG1, kappa, V domains shown)
VH: QVQLQQSGPELARPGASVKLSCKASGYTFTSYGISWVKQRTGQDLEWIGEIYPKLGTTYYNEKFKDKATLTTDRSSSTAYMALRSLTSEDSAVYFCACPHYYATRGGDYWGQGTTLTVSS
VL: EIVLTQSPATLSVTPGDSVTFSCRASQSISNHLHWYQQKSHESPRLLIRYASQSISGIPSRFSGSGSGTDFTLSLSSVETEDFGVYFCQQSHSWPYTFGGGTKLEIAR
notes: as for B4
B10: F1.60.9 (antibody, human IgG1, kappa, V domains shown)
VH: QVQLKESGPGLVAPSQSLSITCTVSGLSLNNYGVSWVRQPPGKGLEWLGVIWGDGSTNYHSALISRLSISKDNSKSQVFLKLNSLHTDDTATYYCAINWGDYWGQGTTLIVSS
VL: DIKMTQSPSSMNASLGERVTITCKASQDINSYLSWFQQKPGKSPKILIYRANRLIDGVPSRFSGSGSGQDYSLTISSLEYEDMGIYYCLQYGVFPLTFGAGTKLELKR
notes: as for B1
B11: F1.200.11 (antibody, human IgG1, kappa, V domains shown)
VH: QNQLVQSGPELKKPGETVKISCKASGYTFTTAGMQWVQKMPGKGFKWIGWINTLSGEPKYAEDFKGRFAFSLETSATTAYLQISNLKNEDTATYFCARAYYSNLYWYFDVWGTGTTVTVSS
VL: DIVMTQSQKFMSTTVGDRVTITCKASQNVVTAVAWYQQKPGQSPKVLIYSASNRYSGVPDRFTGSGSGTDFTLTISNMHSEDLANYFCHQYSSYPFTFGSGTKLEIKR
notes: as for B1
B12: F1.172.13 (antibody, human IgG1, kappa, V domains shown)
VH: QVTLKESGPGILQSSQTLSLTCSFSGFSLSTSGMGVSWIRQPSGKGLEWLAHIYWDDDKRYNPSLKSRLTISKDTSRNQVFLKITSVDTADTATYYCARAPPPNWDEYYFDYWGQGTTLTVSS
VL: DIQMTQSPASLSASVGETVTITCRASGNIHNSLAWYQQKQGKSPQLLVHNAKTLADGVPSRFSGSGSGTQYSLKINSLQPEDFGSYYCQHFWSTPPFGGGTKLEIKR
notes: as for B1
B13: F1.7.6 (antibody, human IgG1, kappa, V domains shown)
VH: EIQLQQSGPELVKPGTSVKVSCKASGYDFTRYNMYWVKQSHGKSLEWIGYIDPYNGDTRYNQKFKGKATLTVDKSSSTAYMHLNSLTSEDSAVYYCEAIYYDMEGYALDYWGQGTSVTVSS
VL: DIVMSQSPSSLAVSVGEKVTMSCKSSQSLLYSNNQKNYLAWYQQKPGQSPKKLIYWASTRESGVPDRLTGSGSGTDFTLTISSVTAEDLAVYYCQQFYSYPWTFGGGTKLEIKR
notes: as for B4
B14: F1.105.11 (antibody, human IgG1, kappa, V domains shown)
VH: EVQLQQSGPVLVKPGASVKMSCKASGYTFSDYFMNWVKQSHGKSLEWIGIINSYSGGTSYNQKFKGKATLTVDKSSSTAYMELNSLTSEDSAVYYCARWMDYWGQGTSVTVSS
VL: DVQITQSPSYLAASPGETITINCRTSESISKHLAWYQEKPGKTNKLLIYSGSTLQSGIPSRFSGSGSGTDFTLTISSLEPEDFAMYYCQQHNEYPWTFGGGTKLEIKR
notes: as for B4
B15: F1.267.9 (antibody, human IgG1, kappa, V domains shown)
VH: EVQLQQSGPVLVKPGASVKMSCKASGYTFTDFYMNWAKQSHGKSLEWVGVINPYNGGINYNQKFKGKATLTVDKSSSTAYMEFNSLTSEDSAVYYCARRMEYHAMDYWGQGTSVTVSS
VL: DIVLTQSPASLAVSLGQRATISCRASESVDNYGFDFIHWYQQKPGQPPKLLIYRASNLESGIPARFSGSGSRPDFTLTINPVETDDVATYYCQQSIKDPWTFGGGTKLEIKR
notes: as for B4

Target: T1, monkey CD22 on HEK293T-monkey CD22 cells
Test: FACS, HEK293T-monkey CD22 cells
Experimental: For suspension cell Raji, the medium supernatant was directly centrifuged and discarded, and the cell pellet was washed 2 times with PBS. After counting the cells in the previous step, the cell pellet was resuspended with [PBS+2% (w/w) BSA] blocking solution to 2×10⁶ cells/ml, and added to a 96-well FACS reaction plate at 50 μl/well, and then the chimeric antibody test sample was added at 50 μl/well, and incubated on ice for 2 hours. The mixture was centrifuged and washed 3 times with PBS buffer, Alexa Flour 488-labeled secondary antibody (purchased from Invitrogen, catalog number: A-11013) was added at 50 μl/well, and incubated on ice for 1 hour. The obtained mixture was centrifuged and washed 5 times with PBS, and FACS (FACS Canto™, purchased from BD Company) was used for detection and result analysis. Data analysis was performed by software (CellQuest) to obtain the mean fluorescence density (MFI)of the cells. And then software (GraphPad Prism8) was used for analysis, data fitting, and EC50 value calculation. […] The same method was used to detect the binding of the chimeric antibodies to endogenous CD22-negative cell MoLT4 cells (purchased from ATCC, CRL-1582) and CHO-K1 cells.
HEK293T-monkey CD22 cells were subjected to FACS detection and data analysis according to the method in Example 5.2.

Binder | EC50 | Maximum mean fluorescence intensity
B1 | 0.95 nM | 13600 MFI
B2 | 0.26 nM | 13900 MFI
B3 | 0.62 nM | 16300 MFI
B4 | 0.79 nM | 16300 MFI
B5 | 12.3 nM | 9250 MFI
B6 |  | 124 MFI
B7 | 0.38 nM | 17200 MFI
B8 | 0.31 nM | 19700 MFI
B9 |  | 147 MFI
B10 |  | 531 MFI
B11 | 4.32 nM | 16200 MFI
B12 | 0.47 nM | 19000 MFI
B13 | 2.22 nM | 9220 MFI
B14 | 1.3 nM | 7530 MFI
B15 | 1.15 nM | 15300 MFI
